Data as given in patent publication US6780611B1, “Polynucleotide encoding neuromedin U receptor” (Pfizer Inc., priority 1999, dated 2004).
No end group written: not given here.

Target: T1, PFI-002 receptor (Homo sapiens, UniProt Q9GZQ4, S2A)
T1 construct: expressed in transfected cells; host or cells: HEK 293 (human embryonic kidney), transient transfection
Assay: Functional screen of peptides by FLIPR (Fluo-3 fluorescence) in HEK 293 cells transiently transfected with PFI-002
Type: cell-based
Settings: HEK 293 cells transiently transfected with PFI-002, Fluo-3 loaded; neuromedins 10 μM final, in triplicate; other peptides 5 μM final
Experimental: Transient Expression in Native HEK 293 Cells
Transfection: 7.5 μg of PFI-002 DNA was transiently transfected into native human embryonic kidney 293 (HEK 293) cells (75 cm^2 flask, 80% confluent) using the Lipofectamine Plus protocol (Life Technologies, Inc.) and following the manufacturer's instructions. 24 hrs after transfection, the cells were detached with trypsin and seeded into black walled 96 well plates at a density of 5×10^4 cells/well. The next day the cells were loaded with Fluo-3 in the presence of 3 mM probenicid (Molecular Devices; inhibits activity of the anion transport protein, thus improving dye loading) for 1.5 hours (loading dye/96 well plate: 50 μg Fluo-3 in 20 μl DMSO+20 μl 20% pluronic acid in DMSO+11 ml growth media+3 mM probenicid—added 100 μl loading dye/well). After washing (wash buffer PBS/3 mM probenicid/pH 7.4), the cells were exposed to 60 peptides (final concentration 5 μM each) arrayed in a 96 well plate. In addition, neuromedins B, C, N, U8 and U25 (final concentration 10 μM each) were screened in triplicate. Fluorescence was measured by a Fluorometric Imaging Plate Reader (FLIPR, Molecular Devices) according to the manufacturer's protocol.

T1 sequence (Q9GZQ4 whole entry S2A): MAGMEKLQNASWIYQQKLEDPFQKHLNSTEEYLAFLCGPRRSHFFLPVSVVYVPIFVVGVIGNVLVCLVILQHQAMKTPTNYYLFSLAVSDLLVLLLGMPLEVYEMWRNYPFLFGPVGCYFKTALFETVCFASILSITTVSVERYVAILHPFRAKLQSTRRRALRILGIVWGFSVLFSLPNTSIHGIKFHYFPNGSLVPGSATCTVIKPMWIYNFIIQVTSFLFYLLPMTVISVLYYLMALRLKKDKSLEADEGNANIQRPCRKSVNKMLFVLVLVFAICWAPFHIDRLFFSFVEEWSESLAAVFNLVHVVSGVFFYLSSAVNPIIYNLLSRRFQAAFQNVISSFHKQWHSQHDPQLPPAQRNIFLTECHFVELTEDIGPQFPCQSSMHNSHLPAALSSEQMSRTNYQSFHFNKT

functional response of PFI-002 receptor (fluorescence measured by FLIPR, FIG. 2): specific functional response
Substance: neuromedin U: Peptide ligand of the PFI-002 receptor; screened as Neuromedin U8 and Neuromedin U25 (wells F10-G3) (FRVDEEFQSPFASQSRGYFLFRPRN; ends and bridges not checked; UniProt P48645 142-166, looked up)
